How the values were obtained:
[1] = biological target: β2-RF (full-length human BK β2 subunit with C-terminal mCherry-FLAG) (human) (UniProt Q9Y691); experiment: pull-down + SEC; as a3 but plasmid weight ratio 1:0.2:1.8 (TR2)
[2] = biological target: hSlo1EM-TS (modified human Slo1 BK α subunit with a C-terminal twin-strep tag) (human) (UniProt Q12791); experiment: as above
[3] = biological target: β2-RF (full-length human BK β2 subunit with C-terminal mCherry-FLAG) (human) (UniProt Q9Y691); experiment: pull-down + SEC; TR1 (1:1:1); three-step affinity purification: streptactin XT (Slo1), then anti-FLAG M2 resin (β2) and anti-ρ1D4 resin (β3) one after the other, in either order; eluates, input and flow-through read by dual-colour FSEC
[4] = biological target: hSlo1EM-TS (modified human Slo1 BK α subunit with a C-terminal twin-strep tag) (human) (UniProt Q12791); experiment: as above
[5] = biological target: β2-RF (full-length human BK β2 subunit with C-terminal mCherry-FLAG) (human) (UniProt Q9Y691); experiment: pull-down + SEC; plasmid weight ratio 1:0.2:1.8 (TR2)

Sequence of β2-RF (full-length human BK β2 subunit with C-terminal mCherry-FLAG) (human) (Q9Y691 whole entry): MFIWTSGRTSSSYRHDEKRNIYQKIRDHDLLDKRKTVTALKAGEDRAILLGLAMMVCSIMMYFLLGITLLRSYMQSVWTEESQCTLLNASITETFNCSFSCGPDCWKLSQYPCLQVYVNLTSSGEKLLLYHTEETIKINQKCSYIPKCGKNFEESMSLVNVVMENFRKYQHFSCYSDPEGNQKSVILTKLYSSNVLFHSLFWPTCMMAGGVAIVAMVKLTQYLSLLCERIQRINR
Sequence of β3-Gρ (full-length human BK β3a subunit with C-terminal eGFP-ρ1D4) (natural protein) (Q9NPA1 whole entry): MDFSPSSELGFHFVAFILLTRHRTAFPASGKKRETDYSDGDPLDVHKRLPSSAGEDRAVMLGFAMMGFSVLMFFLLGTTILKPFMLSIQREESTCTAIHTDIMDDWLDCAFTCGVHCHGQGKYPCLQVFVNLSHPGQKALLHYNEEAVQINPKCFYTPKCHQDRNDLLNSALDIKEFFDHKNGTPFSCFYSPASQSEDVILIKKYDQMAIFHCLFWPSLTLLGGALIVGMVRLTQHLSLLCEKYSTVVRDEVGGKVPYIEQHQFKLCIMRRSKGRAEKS
Sequence of hSlo1EM-TS (modified human Slo1 BK α subunit with a C-terminal twin-strep tag) (human) (Q12791 whole entry): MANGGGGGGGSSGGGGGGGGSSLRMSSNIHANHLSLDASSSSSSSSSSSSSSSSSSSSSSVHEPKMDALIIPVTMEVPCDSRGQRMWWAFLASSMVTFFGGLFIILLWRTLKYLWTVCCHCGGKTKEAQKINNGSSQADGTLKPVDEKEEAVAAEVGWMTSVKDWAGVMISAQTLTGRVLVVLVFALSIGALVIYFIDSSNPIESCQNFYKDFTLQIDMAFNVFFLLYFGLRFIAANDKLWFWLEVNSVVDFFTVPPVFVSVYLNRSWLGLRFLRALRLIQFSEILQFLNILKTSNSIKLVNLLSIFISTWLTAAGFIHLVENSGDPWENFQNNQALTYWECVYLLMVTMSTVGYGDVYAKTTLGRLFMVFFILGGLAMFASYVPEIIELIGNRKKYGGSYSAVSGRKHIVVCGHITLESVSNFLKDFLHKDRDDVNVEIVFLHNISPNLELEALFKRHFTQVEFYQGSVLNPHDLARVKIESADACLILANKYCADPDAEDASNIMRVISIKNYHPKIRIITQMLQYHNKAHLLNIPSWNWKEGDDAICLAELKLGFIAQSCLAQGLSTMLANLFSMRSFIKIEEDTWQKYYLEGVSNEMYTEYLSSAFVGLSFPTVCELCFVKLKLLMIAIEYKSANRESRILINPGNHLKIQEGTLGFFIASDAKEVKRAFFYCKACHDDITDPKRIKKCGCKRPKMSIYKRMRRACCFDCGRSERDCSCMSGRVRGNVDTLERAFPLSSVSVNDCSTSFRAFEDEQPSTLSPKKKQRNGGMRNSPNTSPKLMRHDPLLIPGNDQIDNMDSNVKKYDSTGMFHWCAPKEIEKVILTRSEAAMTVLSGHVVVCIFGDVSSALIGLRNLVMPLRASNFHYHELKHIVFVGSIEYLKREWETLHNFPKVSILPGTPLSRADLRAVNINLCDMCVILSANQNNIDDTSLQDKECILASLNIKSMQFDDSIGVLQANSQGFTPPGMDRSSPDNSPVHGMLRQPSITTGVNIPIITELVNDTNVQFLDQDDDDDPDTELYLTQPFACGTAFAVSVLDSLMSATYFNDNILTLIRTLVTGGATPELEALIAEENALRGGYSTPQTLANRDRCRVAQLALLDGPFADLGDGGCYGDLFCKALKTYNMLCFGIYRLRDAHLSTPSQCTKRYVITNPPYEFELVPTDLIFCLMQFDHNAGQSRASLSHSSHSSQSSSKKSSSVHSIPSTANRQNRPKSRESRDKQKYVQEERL

percent of total Slo1–β2 complexes that are ternary (hold β3 too) [1]: 58%
stoichiometry N (β3 per 4 Slo1) [2]: 2.1
molar ratio of β2-RF to β3-Gρ in the triply purified complex [3]: 2.33 mol/mol
percent of total Slo1–β2 complexes that are ternary (hold β3 too) [3]: 14%
stoichiometry N (β3 per 4 Slo1) [4]: 1.2
molar ratio of β2-RF to β3-Gρ in the triply purified complex [5]: 0.89 mol/mol
Substance: β3-Gρ (full-length human BK β3a subunit with C-terminal eGFP-ρ1D4) (natural protein)

— PMC12646051
